According to patent EP4585618A1 (Jiangsu Hengrui Pharmaceuticals Co., Ltd., dated 2025):

Tests used:
[1] = biological target: T1, LILRA5-His (Acro, LI5-H82E1) (human, UniProt A6NI73 42-268); test: ELISA, coated protein 1 µg/mL, antibody 10 µg/mL
T1 construct: Bought protein. 'Human' stands at the head of the list of coated proteins; not shown: His tag

[2] = biological target: T2, His-tagged ILT2 protein extracellular domain: ILT2-His (human, UniProt Q8NHL6 24-461); test: ELISA, coated protein 1 µg/mL, antibody 10 µg/mL
T2 construct: The entry is the whole construct, with the His tag; also called human ILT2 protein
T2 sequence (Q8NHL6 other isoform, or with tags, fused parts or gaps): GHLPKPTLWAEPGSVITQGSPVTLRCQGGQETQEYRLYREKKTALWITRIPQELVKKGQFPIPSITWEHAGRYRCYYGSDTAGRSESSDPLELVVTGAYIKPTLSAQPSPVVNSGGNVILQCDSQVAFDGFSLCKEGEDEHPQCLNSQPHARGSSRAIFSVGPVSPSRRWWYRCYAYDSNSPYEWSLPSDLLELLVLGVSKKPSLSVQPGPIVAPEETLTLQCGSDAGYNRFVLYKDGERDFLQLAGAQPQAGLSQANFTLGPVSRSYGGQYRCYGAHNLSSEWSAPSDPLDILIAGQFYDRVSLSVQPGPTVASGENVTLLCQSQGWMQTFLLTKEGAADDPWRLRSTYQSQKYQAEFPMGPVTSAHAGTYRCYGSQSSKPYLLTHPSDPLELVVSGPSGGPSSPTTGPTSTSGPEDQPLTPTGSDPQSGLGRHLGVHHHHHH

[3] = biological target: T3, His-tagged ILT4 protein extracellular domain: ILT4-His (human, UniProt Q8N423 22-460); test: ELISA, coated protein 1 µg/mL, antibody 10 µg/mL
T3 construct: Expressed in 293 cells; also called human ILT4-His protein
T3 sequence (Q8N423 other isoform, or with tags, fused parts or gaps limits assumed): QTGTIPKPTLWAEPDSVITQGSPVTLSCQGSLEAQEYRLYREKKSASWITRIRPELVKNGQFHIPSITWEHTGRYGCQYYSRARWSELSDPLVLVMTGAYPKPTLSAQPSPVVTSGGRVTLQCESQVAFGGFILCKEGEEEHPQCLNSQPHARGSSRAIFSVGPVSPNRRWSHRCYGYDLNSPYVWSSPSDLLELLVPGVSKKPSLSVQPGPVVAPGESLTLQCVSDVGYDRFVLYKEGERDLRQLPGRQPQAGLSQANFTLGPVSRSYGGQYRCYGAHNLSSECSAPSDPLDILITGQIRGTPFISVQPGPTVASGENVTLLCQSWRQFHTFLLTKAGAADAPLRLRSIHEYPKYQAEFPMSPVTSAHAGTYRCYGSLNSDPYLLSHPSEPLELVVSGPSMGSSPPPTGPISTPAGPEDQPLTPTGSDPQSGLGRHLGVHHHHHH

[4] = biological target: T4, LILRA6-His (Acro, LI6-H82E2) (human, UniProt Q6PI73 24-447); test: ELISA, coated protein 1 µg/mL, antibody 10 µg/mL
T4 construct: Bought protein. 'Human' stands at the head of the list of coated proteins; not shown: His tag
T4 sequence (Q6PI73 24-447 limits assumed): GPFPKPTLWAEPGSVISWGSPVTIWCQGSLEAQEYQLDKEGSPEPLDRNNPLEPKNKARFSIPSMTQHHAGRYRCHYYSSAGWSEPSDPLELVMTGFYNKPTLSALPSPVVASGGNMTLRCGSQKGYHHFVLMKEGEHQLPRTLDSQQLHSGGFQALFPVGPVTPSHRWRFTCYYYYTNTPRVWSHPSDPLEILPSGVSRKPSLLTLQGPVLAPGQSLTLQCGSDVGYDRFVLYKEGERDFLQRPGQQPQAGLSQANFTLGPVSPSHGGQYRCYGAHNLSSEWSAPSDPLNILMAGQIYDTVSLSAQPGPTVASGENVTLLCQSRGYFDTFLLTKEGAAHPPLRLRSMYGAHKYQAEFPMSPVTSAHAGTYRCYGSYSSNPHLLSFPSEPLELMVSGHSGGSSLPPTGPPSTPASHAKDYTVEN

[5] = biological target: T5, LILRA4-His (SinoBiological, 16058-H08H) (human, UniProt P59901 24-446); test: ELISA, coated protein 1 µg/mL, antibody 10 µg/mL
T5 construct: Bought protein. 'Human' stands at the head of the list of coated proteins; not shown: His tag
T5 sequence (P59901 24-446 limits assumed): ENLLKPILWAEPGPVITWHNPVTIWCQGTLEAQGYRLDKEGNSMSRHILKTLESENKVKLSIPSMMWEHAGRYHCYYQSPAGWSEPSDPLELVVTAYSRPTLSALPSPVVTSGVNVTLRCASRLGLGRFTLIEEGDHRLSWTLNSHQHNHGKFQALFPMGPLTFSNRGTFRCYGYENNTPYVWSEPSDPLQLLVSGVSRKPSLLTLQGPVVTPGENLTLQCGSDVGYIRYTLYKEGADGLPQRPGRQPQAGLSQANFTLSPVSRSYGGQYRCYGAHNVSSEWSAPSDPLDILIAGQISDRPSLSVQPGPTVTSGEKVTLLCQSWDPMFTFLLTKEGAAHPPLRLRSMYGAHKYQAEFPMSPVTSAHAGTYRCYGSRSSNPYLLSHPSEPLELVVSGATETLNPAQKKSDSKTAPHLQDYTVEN

[6] = biological target: T6, LILRA2-His (Acro, LI2-H82E9) (human, UniProt Q8N149 24-449); test: ELISA, coated protein 1 µg/mL, antibody 10 µg/mL
T6 construct: Bought protein. 'Human' stands at the head of the list of coated proteins; not shown: His tag
T6 sequence (Q8N149 24-449 limits assumed): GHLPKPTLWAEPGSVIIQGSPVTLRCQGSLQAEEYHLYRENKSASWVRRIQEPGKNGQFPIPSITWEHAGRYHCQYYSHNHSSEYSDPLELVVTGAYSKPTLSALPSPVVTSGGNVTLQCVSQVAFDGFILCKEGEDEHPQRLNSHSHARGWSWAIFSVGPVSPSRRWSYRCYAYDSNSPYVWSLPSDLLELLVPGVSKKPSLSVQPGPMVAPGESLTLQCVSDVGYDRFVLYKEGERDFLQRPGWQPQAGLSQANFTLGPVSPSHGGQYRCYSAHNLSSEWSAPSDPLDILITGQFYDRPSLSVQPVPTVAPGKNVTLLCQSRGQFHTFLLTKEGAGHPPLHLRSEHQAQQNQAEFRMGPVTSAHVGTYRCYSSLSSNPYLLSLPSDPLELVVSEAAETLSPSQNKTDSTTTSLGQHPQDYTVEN

[7] = biological target: T7, LILRB5-His (Acro, CDC-H5220) (human, UniProt O75023 24-458, limits assumed); test: ELISA, coated protein 1 µg/mL, antibody 10 µg/mL
T7 construct: Bought protein. 'Human' stands at the head of the list of coated proteins; not shown: His tag
T7 sequence (O75023 24-458 limits assumed): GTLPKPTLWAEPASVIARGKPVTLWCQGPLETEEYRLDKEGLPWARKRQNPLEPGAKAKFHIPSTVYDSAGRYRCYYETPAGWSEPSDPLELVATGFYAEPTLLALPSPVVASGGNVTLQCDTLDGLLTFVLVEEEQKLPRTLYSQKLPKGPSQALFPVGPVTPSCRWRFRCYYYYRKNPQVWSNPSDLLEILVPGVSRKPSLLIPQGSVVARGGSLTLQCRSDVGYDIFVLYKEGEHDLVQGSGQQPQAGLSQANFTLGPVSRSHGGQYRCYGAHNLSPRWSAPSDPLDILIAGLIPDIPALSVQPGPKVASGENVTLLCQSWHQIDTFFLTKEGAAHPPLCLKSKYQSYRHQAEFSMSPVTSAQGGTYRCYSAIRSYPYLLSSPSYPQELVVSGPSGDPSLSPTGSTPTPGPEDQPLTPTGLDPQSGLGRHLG

[8] = biological target: T8, LILRA3-His (Acro, LI3-H82E0) (human, UniProt Q8N6C8 24-439); test: ELISA, coated protein 1 µg/mL, antibody 10 µg/mL
T8 construct: Bought protein. 'Human' stands at the head of the list of coated proteins; not shown: His tag
T8 sequence (Q8N6C8 24-439 limits assumed): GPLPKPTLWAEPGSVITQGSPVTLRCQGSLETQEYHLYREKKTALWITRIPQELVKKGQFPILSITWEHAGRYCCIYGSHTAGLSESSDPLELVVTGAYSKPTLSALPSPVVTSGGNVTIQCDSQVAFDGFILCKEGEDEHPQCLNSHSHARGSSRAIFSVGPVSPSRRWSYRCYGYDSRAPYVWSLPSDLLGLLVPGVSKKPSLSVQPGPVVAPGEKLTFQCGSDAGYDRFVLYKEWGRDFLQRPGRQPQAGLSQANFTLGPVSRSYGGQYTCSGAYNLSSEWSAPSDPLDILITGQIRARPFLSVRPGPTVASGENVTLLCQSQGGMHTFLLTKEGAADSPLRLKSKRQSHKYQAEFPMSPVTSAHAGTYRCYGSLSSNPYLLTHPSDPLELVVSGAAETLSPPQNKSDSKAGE

[9] = biological target: T9, His-tagged ILT3 protein extracellular domain: ILT3-His (human, UniProt Q8NHJ6 22-259); test: ELISA, coated protein 1 µg/mL, antibody 10 µg/mL
T9 construct: The entry is the whole construct, with the His tag

[10] = biological target: T10, LILRA1-His (Acro, LI1-H82E8) (human, UniProt O75019 17-461); test: ELISA, coated protein 1 µg/mL, antibody 10 µg/mL
T10 construct: Bought protein. 'Human' stands at the head of the list of coated proteins; not shown: His tag
T10 sequence (O75019 17-461 limits assumed): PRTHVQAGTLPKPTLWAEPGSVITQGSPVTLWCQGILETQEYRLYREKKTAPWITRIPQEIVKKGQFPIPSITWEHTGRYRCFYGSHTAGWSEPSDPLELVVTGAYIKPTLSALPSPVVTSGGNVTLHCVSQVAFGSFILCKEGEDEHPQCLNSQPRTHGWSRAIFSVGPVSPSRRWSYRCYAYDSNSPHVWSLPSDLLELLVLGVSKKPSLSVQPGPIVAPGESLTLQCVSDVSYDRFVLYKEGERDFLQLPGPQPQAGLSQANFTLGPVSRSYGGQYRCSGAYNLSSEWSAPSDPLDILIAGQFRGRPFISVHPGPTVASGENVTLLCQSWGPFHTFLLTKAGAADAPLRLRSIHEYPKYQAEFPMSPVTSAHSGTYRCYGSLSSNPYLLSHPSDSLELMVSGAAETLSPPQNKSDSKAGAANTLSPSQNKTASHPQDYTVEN

[11] = biological target: T11, full-length human ILT4 protein overexpressed on cells (human, UniProt Q8N423 22-597); test: flow cytometry competition on CHO-S/ILT4 cells; competitor CF647-labelled HLA-G tetramer; Assay 1
T11 construct: also called CHO-S/ILT4; ILT4 stably transfected cell strain
T11 sequence (Q8N423 other isoform, or with tags, fused parts or gaps limits assumed): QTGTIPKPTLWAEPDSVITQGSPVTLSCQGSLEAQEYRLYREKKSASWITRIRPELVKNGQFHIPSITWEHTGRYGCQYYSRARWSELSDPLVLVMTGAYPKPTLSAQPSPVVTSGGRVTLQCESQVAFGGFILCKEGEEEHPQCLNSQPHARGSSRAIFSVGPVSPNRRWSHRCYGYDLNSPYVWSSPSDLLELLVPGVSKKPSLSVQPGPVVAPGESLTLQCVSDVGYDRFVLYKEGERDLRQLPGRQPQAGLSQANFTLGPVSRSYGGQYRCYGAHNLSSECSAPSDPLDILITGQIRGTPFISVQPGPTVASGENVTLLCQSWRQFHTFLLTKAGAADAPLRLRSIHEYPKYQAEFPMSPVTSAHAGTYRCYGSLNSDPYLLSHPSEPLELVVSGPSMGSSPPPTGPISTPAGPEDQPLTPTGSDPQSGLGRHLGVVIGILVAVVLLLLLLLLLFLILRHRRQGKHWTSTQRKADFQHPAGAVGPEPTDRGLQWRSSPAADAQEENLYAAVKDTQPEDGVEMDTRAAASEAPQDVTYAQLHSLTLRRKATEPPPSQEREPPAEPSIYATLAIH

[12] = biological target: T11, full-length human ILT4 protein …; test: flow cytometry (FACS) on CHO-S/ILT4 cells; Assay 1
[13] = biological target: T1, LILRA5-His (Acro, LI5-H82E1); test: ELISA, coated protein 1 µg/mL
[14] = biological target: T2, His-tagged ILT2 protein extracellular …; test: ELISA, coated protein 1 µg/mL
[15] = biological target: T4, LILRA6-His (Acro, LI6-H82E2); test: ELISA, coated protein 1 µg/mL
[16] = biological target: T5, LILRA4-His (SinoBiological, 16058-H08H); test: ELISA, coated protein 1 µg/mL
[17] = biological target: T6, LILRA2-His (Acro, LI2-H82E9); test: ELISA, coated protein 1 µg/mL
[18] = biological target: T7, LILRB5-His (Acro, CDC-H5220); test: ELISA, coated protein 1 µg/mL
[19] = biological target: T8, LILRA3-His (Acro, LI3-H82E0); test: ELISA, coated protein 1 µg/mL
[20] = biological target: T9, His-tagged ILT3 protein extracellular …; test: ELISA, coated protein 1 µg/mL
[21] = biological target: T10, LILRA1-His (Acro, LI1-H82E8); test: ELISA, coated protein 1 µg/mL
[22] = biological target: T3, His-tagged ILT4 protein extracellular …; test: SPR (Biacore), antibody captured on Protein A chip, ILT4-His as analyte, 1:1 model
[23] = biological target: T3, His-tagged ILT4 protein extracellular …; test: ELISA, coated ILT4-His 1 µg/mL; Assay 4
[24] = biological target: T11, full-length human ILT4 protein …; test: flow cytometry competition on CHO-S/ILT4 cells; competitor CF647-labelled HLA-G tetramer; Assay 3
[25] = biological target: T3, His-tagged ILT4 protein extracellular …; test: ELISA, coated ILT4-His 1 µg/mL; Assay 1
[26] = biological target: T11, full-length human ILT4 protein …; test: flow cytometry competition on CHO-S/ILT4 cells; competitor CF647-labelled HLA-G tetramer; Assay 2
[27] = biological target: T3, His-tagged ILT4 protein extracellular …; test: ELISA, coated ILT4-His 1 µg/mL; Assay 5
[28] = biological target: T11, full-length human ILT4 protein …; test: flow cytometry competition on CHO-S/ILT4 cells; competitor CF647-labelled HLA-G tetramer; Assay 4
[29] = biological target: T3, His-tagged ILT4 protein extracellular …; test: ELISA, coated ILT4-His 1 µg/mL; Assay 3
[30] = biological target: T3, His-tagged ILT4 protein extracellular …; test: ELISA, coated ILT4-His 1 µg/mL; Assay 2
[31] = biological target: T2, His-tagged ILT2 protein extracellular …; test: phage ELISA
[32] = biological target: T3, His-tagged ILT4 protein extracellular …; test: phage ELISA

T1 sequence (A6NI73 42-268 limits assumed): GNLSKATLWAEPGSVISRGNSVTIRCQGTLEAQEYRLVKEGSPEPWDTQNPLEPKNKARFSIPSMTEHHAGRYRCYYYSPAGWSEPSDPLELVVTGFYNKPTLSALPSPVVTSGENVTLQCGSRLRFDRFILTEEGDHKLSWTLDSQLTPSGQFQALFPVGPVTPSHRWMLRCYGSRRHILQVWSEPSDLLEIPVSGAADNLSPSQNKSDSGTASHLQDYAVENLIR

B1: humanized antibody huP2-E3 (antibody, human IgG4 S228P, kappa, F234A L235A, V domains shown)
VH: EVQLVQSGAEVKKPGASVKVSCKASGYTFTDYYMNWVKQAPGQRLEWMGDINPNSGGTSYNQKFKGRVTITVDKSGSTAYMELSSLRSEDTAVYYCARGGVTTVVATYWYFDVWGQGTTVTVSS
VL: DIQMTQSPSSLSASVGDRVTITCRASENIYSNLAWYQQKPGKSPKLLVYAATNVADGVPSRFSGSGSGTDYTLTISSLQPEDFATYYCQQFWDTPFTFGQGTKLEIKR
notes: Full chains; The constant region is hIgG1(LALA) or hIgG4(LALA) with a kappa CL; also called P2-E3H6L2
In the case of B1, the “absorbance at 450 nm” value [1] is reported as 0.0466 absorbance at 450 nm, the “absorbance at 450 nm” value [2] is reported as 0.0541 absorbance at 450 nm and the “absorbance at 450 nm” value [3] is reported as 1.04 absorbance at 450 nm. The “absorbance at 450 nm” value [4] was 0.047 absorbance at 450 nm, the “absorbance at 450 nm” value [5] was 0.0605 absorbance at 450 nm and the “absorbance at 450 nm” value [6] was 0.055 absorbance at 450 nm. For the same binder, the “absorbance at 450 nm” value [7] was 0.0523 absorbance at 450 nm, the “absorbance at 450 nm” value [8] was 0.0476 absorbance at 450 nm and the “absorbance at 450 nm” value [9] was 0.0699 absorbance at 450 nm. For the same binder, the “absorbance at 450 nm” value [10] was 0.0532 absorbance at 450 nm, the IC50 [11] was 0.012 µg/mL and the EC50 [12] was 0.0307 µg/mL. B1: no binding (tested: 10 µg/mL) [13]; no binding (tested: 10 µg/mL) [14]; no binding (tested: 10 µg/mL) [15]. B1: no binding (tested: 10 µg/mL) [16]; no binding (tested: 10 µg/mL) [17]; no binding (tested: 10 µg/mL) [18]. B1: no binding (tested: 10 µg/mL) [19]; no binding (tested: 10 µg/mL) [20]; no binding (tested: 10 µg/mL) [21]. It also gave a Kd [22] of 1.26 nM, a koff [22] of 0.00127 s⁻¹ and a kon [22] of 1.01e+06 M⁻¹ s⁻¹.

B2: positive control antibody JTX (sequences from WO2019126514A2) (antibody, human IgG4 S228P, kappa, V domains shown)
VH: QITLKESGPTLVKPTQTLTLTCTFSGFSLNTYAMGVSWIRQPPGKALEWLASIWWNGNKYNNPSLKSRLTVTKDTSKNQVVLTMTNMDPVDTATYYCAHSRIIRFTDYVMDAWGQGTLVTVSS
VL: DIQMTQSPSSLSTSVGDRVTITCRASEDIYNDLAWYQQKPGKAPKLLIYNANSLHTGVASRFSGSGSGTDFTFTISSLQPEDVATYFCQQYYDYPLTFGQGTKLEIKR
notes: also called JTX-8064
B2 was tested, and the EC50 [23] was 0.083 µg/mL, the IC50 [24] was 0.12 µg/mL and the IC50 [11] was 0.022 µg/mL. For the same binder, the EC50 [25] was 0.0826 µg/mL, the IC50 [26] was 0.12 µg/mL and the EC50 [27] was 0.0801 µg/mL. The Top [27] was 1.14 absorbance at 450 nm, the IC50 [28] was 0.061 µg/mL and the EC50 [29] was 0.0293 µg/mL. It also gave an EC50 [30] of 0.0826 µg/mL and a Top [30] of 1.7 absorbance at 450 nm.

B3: positive control antibody MK (sequences from WO2018187518A1) (antibody, human IgG4 S228P, lambda, V domains shown)
VH: EVQLQQWGAGLLKPSETLSLTCAVYGGSFSGYYWSWIRQPPGKGLEWIGEINHAGSTNYNPSLKSRVTISVDTSKNQFSLKLSSVTAADTAVYYCARLPTRWVTTRYFDLWGRGTLVTVSS
VL: ESVLTQPPSVSGAPGQRVTISCTGSSSNIGAGYDVHWYQQLPGTAPKLLIYGDSNRPSGVPDRFSVSKSGASASLAITGLQAEDEADYYCQSFDNSLSAYVFGGGTQLTVLG
For B3, the IC50 [24] was 0.138 µg/mL, the IC50 [11] was 0.031 µg/mL and the EC50 [12] was 0.031 µg/mL. The IC50 [26] was 0.138 µg/mL, the Kd [22] was 19.1 nM and the koff [22] was 0.00863 s⁻¹. The kon [22] was 452000 M⁻¹ s⁻¹ and the IC50 [28] was 0.092 µg/mL.

B4: P2 (fully human-derived antibody clone from phage library screening) (antibody, V domains shown)
VH: QVQLVQSGAEVKKPGSSVKVSCKASGYTFTSYDISWVRQAPGQGLEWMGGIIPIFGTANYAQKFQGRVTITADESTSTAYMELSSLRSEDTAVYYCTAGIFLATAYWGQGTLVTVSS
VL: DIQMTQSPSSMSASVGDRVTISCQASQDINNYLNWYQQRPGQAPKLLIYDASTLETGVPSRFSGSGSGTYFTLTITSLQPADVATYYCQQYENVPITFGQGTRLEIK
B4: no binding [31]; binds [32].

B5: chimeric antibody ChP1-E11 (antibody, human IgG4 S228P, kappa, F234A L235A, V domains shown)
VH: EVQLQQSGPELVKPGASVKMSCQASGYTFTDYSIHWVKQSRGASLEWIGYINPNNGVTNYNQKFKGKATLTVNKSSSTAYMELRSLTSEDSAVYYCAREGDSVTTIVVHWYFDVGGTGTTVTVSS
VL: DIQMTQSPASLSVSLGETVTITCRASENIYSNLVWYQQKQGKFPQLLVYAAINLVDGVPSRFSGSGSGTQYSLKINSLQSEDFGSYYCQQFWDTPLTFGAGTKLEIKR
notes: Murine variable regions with hIgG4(LALA) and CL constant regions; also called M P1-E11
B5 was tested, and the EC50 [23] was 0.041 µg/mL.
